Reference: PMC9482650, “Quantitative fragmentomics allow affinity mapping of interactomes” (Nature Communications, 2022)

T1: APBA1_2, Q02410
T1 sequence (Q02410 742-832, limits assumed, looked up): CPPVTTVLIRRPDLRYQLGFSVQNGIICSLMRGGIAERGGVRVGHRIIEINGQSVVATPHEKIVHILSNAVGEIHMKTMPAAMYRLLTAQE

T2: CARD11, Q9BXL7
T2 sequence (Q9BXL7 662-765, limits assumed, looked up): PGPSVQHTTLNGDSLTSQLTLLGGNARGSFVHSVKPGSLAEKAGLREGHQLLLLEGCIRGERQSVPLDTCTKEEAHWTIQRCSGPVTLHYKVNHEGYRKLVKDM

T3: DFNB31_3, Q9P202
T3 sequence (Q9P202 811-907, limits assumed, looked up): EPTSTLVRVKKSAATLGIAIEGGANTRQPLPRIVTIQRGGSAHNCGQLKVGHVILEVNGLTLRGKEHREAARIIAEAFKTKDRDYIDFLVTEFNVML

T4: GRIP1_2, Q9Y3R0
T4 sequence (Q9Y3R0 145-248, limits assumed, looked up): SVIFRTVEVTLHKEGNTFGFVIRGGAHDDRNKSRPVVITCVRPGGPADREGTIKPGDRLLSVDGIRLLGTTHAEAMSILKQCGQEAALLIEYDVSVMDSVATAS

T5: GRIP1_3, Q9Y3R0
T5 sequence (Q9Y3R0 247-346, limits assumed, looked up): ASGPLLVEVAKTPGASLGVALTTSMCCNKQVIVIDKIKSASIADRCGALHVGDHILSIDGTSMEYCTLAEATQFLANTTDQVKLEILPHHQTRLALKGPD

T6: GRIP1_5, Q9Y3R0
T6 sequence (Q9Y3R0 568-668, limits assumed, looked up): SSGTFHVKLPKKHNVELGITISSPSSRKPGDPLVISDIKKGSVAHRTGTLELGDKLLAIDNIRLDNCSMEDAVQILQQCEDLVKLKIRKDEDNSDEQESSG

T7: LIN7C, Q9NUP9
T7 sequence (Q9NUP9 88-185, limits assumed, looked up): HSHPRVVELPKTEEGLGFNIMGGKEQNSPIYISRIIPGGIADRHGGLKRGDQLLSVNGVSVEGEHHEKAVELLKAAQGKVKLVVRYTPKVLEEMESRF

T8: MPP7, Q5T2T1
T8 sequence (Q5T2T1 134-230, limits assumed, looked up): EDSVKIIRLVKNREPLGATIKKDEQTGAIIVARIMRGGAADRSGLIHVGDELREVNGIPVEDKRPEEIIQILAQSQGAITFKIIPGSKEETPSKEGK

T9: SYNJ2BP, P57105
T9 sequence (P57105 8-110, limits assumed, looked up): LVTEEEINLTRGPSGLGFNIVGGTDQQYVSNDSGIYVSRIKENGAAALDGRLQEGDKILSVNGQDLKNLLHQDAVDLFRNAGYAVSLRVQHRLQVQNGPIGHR

T10: TJP3_3, O95049
T10 sequence (O95049 375-456, limits assumed, looked up): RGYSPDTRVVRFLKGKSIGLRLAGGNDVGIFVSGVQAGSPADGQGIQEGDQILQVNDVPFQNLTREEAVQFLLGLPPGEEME


What was measured:
Experiment in all cases: holdup assay
Set-up in all cases: key: below the threshold = too weak to quantify, mostly under pKd 3.1 to 4
Settings in all cases: plain residues with an end cap or a label only (N-terminal biotin on a linker: ado-ado)
[1] = target: AHNAK1, Q09666
Sequence of AHNAK1, Q09666 (Q09666 4-100): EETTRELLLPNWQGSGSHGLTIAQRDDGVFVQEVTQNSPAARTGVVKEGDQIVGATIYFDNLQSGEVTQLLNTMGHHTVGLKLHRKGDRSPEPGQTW

[2] = target: T1, APBA1_2, Q02410
[3] = target: T2, CARD11, Q9BXL7
[4] = target: T3, DFNB31_3, Q9P202
[5] = target: DLG1_3, Q12959
Sequence of DLG1_3, Q12959 (Q12959 457-571): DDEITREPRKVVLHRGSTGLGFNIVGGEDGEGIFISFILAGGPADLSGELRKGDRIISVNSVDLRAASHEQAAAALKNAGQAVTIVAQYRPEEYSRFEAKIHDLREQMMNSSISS

[6] = target: DLG4_3, P78352
Sequence of DLG4_3, P78352 (P78352 306-403): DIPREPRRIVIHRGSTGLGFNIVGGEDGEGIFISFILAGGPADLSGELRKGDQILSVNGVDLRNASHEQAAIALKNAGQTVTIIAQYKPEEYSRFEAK

[7] = target: FRMPD3, Q5JV73
Sequence of FRMPD3, Q5JV73 (Q5JV73 12-100): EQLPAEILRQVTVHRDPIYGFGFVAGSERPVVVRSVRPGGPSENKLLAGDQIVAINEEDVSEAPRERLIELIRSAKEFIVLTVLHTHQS

[8] = target: GORASP2, Q9H8Y8
[9] = target: GRID2IP_1, A4D2P6
Sequence of GRID2IP_1, A4D2P6 (A4D2P6 1-87): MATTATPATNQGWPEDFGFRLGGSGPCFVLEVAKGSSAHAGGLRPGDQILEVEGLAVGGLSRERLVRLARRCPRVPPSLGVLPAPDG

[10] = target: T4, GRIP1_2, Q9Y3R0
[11] = target: T5, GRIP1_3, Q9Y3R0
[12] = target: T6, GRIP1_5, Q9Y3R0
[13] = target: GRIP2_3, Q9C0E4
Sequence of GRIP2_3, Q9C0E4 (Q9C0E4 238-339): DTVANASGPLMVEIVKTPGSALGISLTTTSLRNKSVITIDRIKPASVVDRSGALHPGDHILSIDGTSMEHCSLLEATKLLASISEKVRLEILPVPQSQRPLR

[14] = target: GRIP2_7, Q9C0E4
Sequence of GRIP2_7, Q9C0E4 (Q9C0E4 934-1023): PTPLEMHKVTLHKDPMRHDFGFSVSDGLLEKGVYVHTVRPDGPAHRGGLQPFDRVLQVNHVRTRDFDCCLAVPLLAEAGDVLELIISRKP

[15] = target: HTRA2, O43464
Sequence of HTRA2, O43464 (O43464 355-458): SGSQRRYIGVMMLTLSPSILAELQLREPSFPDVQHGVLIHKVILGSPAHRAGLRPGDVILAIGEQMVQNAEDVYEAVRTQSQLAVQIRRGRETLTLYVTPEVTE

[16] = target: LAP2, Q96RT1
Sequence of LAP2, Q96RT1 (Q96RT1 other isoform, or with tags, fused parts or gaps): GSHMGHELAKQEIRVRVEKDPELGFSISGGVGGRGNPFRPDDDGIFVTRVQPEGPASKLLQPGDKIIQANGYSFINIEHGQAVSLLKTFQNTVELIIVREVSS

[17] = target: T7, LIN7C, Q9NUP9
[18] = target: MAGI2_2, Q86UL8
Sequence of MAGI2_2, Q86UL8 (Q86UL8 410-522): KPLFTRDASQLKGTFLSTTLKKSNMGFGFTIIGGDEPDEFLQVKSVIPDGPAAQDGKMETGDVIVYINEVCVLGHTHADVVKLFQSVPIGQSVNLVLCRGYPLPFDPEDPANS

[19] = target: MAGI2_4, Q86UL8
Sequence of MAGI2_4, Q86UL8 (Q86UL8 772-865): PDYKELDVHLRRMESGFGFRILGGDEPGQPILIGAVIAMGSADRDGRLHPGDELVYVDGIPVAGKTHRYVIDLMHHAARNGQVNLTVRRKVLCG

[20] = target: T8, MPP7, Q5T2T1
[21] = target: PDZRN4_1, Q6ZMN7
Sequence of PDZRN4_1, Q6ZMN7 (Q6ZMN7 213-318): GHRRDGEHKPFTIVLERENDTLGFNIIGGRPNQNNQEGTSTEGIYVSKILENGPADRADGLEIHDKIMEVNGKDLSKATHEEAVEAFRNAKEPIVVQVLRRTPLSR

[22] = target: SCRIB_1, Q14160
Sequence of SCRIB_1, Q14160 (Q14160 718-814): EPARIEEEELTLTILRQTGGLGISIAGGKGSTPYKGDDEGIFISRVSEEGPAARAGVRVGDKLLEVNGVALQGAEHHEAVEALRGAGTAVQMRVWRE

[23] = target: SCRIB_2, Q14160
Sequence of SCRIB_2, Q14160 (Q14160 857-960): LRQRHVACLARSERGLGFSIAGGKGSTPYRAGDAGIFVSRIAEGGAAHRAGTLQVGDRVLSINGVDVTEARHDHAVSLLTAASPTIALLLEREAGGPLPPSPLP

[24] = target: SNX27, Q96L92
[25] = target: T9, SYNJ2BP, P57105
[26] = target: TJP2_1, Q9UDY2
Sequence of TJP2_1, Q9UDY2 (Q9UDY2 24-128): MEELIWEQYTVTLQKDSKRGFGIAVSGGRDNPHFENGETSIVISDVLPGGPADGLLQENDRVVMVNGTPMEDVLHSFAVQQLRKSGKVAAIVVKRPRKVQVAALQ

[27] = target: T10, TJP3_3, O95049

Row | Binder | pKd [1] | pKd [2] | pKd [3] | pKd [4] | pKd [5] | pKd [6] | pKd [7] | pKd [8] | pKd [9] | pKd [10] | pKd [11] | pKd [12] | pKd [13] | pKd [14] | pKd [15] | pKd [16] | pKd [17] | pKd [18] | pKd [19] | pKd [20] | further results
1 | HLRARKSEWV [GJD4, Q96KN9] | below the threshold | 4.73 | below the threshold | below the threshold | below the threshold | below the threshold | below the threshold | 5.57 | below the threshold | below the threshold | below the threshold | below the threshold | below the threshold | 4.04 | 3.94 | 4.11 | below the threshold | below the threshold | 3.71 | below the threshold | pKd [21]: below the threshold; pKd [22]: below the threshold; pKd [23]: below the threshold; pKd [24]: 4.38; pKd [25]: 4.2; pKd [26]: 6.04; pKd [27]: 4.63
2 | DDPSTAETVL [ABCA7, Q8IZY2] | below the threshold | below the threshold | below the threshold | 3.63 | below the threshold | below the threshold | below the threshold | below the threshold | below the threshold | below the threshold | below the threshold | below the threshold | below the threshold | below the threshold | below the threshold | 3.71 | below the threshold | below the threshold | below the threshold | below the threshold | pKd [21]: 4.66; pKd [22]: 4.37; pKd [23]: below the threshold; pKd [24]: 5.6; pKd [25]: 4.16; pKd [26]: below the threshold; pKd [27]: below the threshold
3 | QHKTQLQTLI [BPIFA2, Q96DR5] | below the threshold | below the threshold | below the threshold | 4.8 | 3.68 | 3.72 | below the threshold | 3.77 | below the threshold | below the threshold | below the threshold | below the threshold | below the threshold | below the threshold | below the threshold | below the threshold | below the threshold | 4.43 | 4.05 | below the threshold | pKd [21]: below the threshold; pKd [22]: 4.02; pKd [23]: below the threshold; pKd [24]: 3.83; pKd [25]: 4.12; pKd [26]: 3.66; pKd [27]: below the threshold
4 | VDSTVKVWTC [TRAF7, Q6Q0C0] | below the threshold | 3.5 | below the threshold | below the threshold | below the threshold | 3.56 | 3.64 | 4.88 | below the threshold | below the threshold | below the threshold | below the threshold | below the threshold | 4.35 | 4.68 | below the threshold | below the threshold | 3.65 | below the threshold | 3.84 | pKd [21]: below the threshold; pKd [22]: 3.66; pKd [23]: below the threshold; pKd [24]: below the threshold; pKd [25]: below the threshold; pKd [26]: below the threshold; pKd [27]: below the threshold
